T1: recombinant human TIGIT (Human TIGIT His, Sino Biological, 10917-H08H) (human, UniProt Q495A1 22-138)
T1 construct: range 1-138; bought; also called hTIGIT
T1 sequence (looked up): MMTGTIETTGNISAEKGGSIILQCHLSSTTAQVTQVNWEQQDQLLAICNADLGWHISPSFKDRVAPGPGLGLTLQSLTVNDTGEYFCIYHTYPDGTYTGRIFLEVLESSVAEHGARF

T2: mouse TIGIT antigen (mouse, UniProt P86176 29-148, limits assumed)
T2 construct: construct not described; also called murine TIGIT
T2 sequence (looked up): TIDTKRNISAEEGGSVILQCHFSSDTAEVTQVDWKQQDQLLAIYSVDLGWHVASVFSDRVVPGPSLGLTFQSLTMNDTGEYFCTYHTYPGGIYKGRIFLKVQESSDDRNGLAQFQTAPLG

T3: full-length human TIGIT expressed on CHO-K cell membrane (CHO-K-TIGIT) (human, UniProt Q495A1 22-244)
T3 construct: whole, on cells; also called CHO-TIGIT; membrane TIGIT
T3 sequence (looked up): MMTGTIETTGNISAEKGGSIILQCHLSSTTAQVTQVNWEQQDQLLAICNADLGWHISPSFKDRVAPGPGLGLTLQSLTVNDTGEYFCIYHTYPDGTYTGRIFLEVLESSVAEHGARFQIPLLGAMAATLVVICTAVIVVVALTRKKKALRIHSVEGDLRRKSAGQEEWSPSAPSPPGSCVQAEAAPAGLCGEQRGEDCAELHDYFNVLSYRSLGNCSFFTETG

B1: anti-human TIGIT mouse monoclonal antibody 7103-01 (antibody, V domains shown)
VH: QVQLQQPGAELVKPGASVKLSCKASGYTFISYNIYWVKQRPGQGLEWIGGVNPSNGNTNFNENFKSKATLTVDKSSSTAYMQLSSLTSDDSAVYFCTRGNYYGYEFAYWGQGTLVTVSA
VL: DIVMTQSHKFMSTSVGDRVSITCKASQHVSTAVAWYQQKPGQSPKLLIYSPSYRYTGVPDRFTGSGSGTDFTFTISSVQAEDLAVYYCQQHYSTPWTFGGGTKLEIK
notes: also called 31E10-2-1
B2: anti-human TIGIT mouse monoclonal antibody 7103-03 (antibody, V domains shown)
VH: EVQLQQSGPELVKPGASVKISCKTSGYTFTEYTMHWVKQSHGKSLEWIGGINPNNGGTSYNQKFKGKATLTVDKSSSTAYMELRSLTSEDSAVYYCARGAYYRYDFDYWGQGTTLTVSS
VL: DIVMTQSHKFMSTSVGDRVSITCKASQDVRTAVVWYQQKPGQSPKLLIYSASYRYTGVPDRFTGSGSGTDFTFTISSVQAEDLAVYYCQQHYSTPWTFGGGTKLEIK
notes: also called 36H8-2-2
B3: anti-human TIGIT mouse monoclonal antibody 7103-06 (antibody, V domains shown)
VH: EEQLVESGGGLVKPGGTLKLSCAASGFTFSTYAMSWVRQSPEKRLEWVAEISSGGSYTYYSDTVTGRFTISRDNAKNTLYLEMSSLRSEDTAMYYCARKTLDYYALDYWGHGTSVTVSS
VL: DVQITQSPSYLAASPGETITINCRANKTISKYLAWYQEKPGKTNKLLIYSGSRLQSGIPSKFSGSGYGTDFTLTISSLEPEDFAMYYCQQHNEYPWTFGGGTKLEIK
notes: often printed as 7105-06; also called 7105-06; 47A2-1-2
B4: anti-human TIGIT mouse monoclonal antibody 7103-07 (antibody, V domains shown)
VH: EVQVVESGGGLVKPGGTLKLSCAASGFTFSTYAMSWVRQSPEQRLEWVAEISSGGSHTFYSDTVTGRFTISRDNAQNTLYLEMNSLRSEDTAMYYCARKTLDYYALDYWGQGTSVTVSS
VL: DVQITQSPSYLAASPGETITINCRASKSISKYLAWYQEKPGKTNKLLIYSGSRLQSGIPSKFSGSGYGTDFTLTISSLEPEDFAMYYCQQHNEYPWTFGGGTKVEIK
notes: also called 42C12-1-2
B5: anti-human TIGIT mouse monoclonal antibody 7103-04 (antibody, V domains shown)
VH: VQLQESGAELVKPGASVKLSCRASGYTFTDYFVYWVKQRPGQGLEWIGGINPSNGGATFNEKFKNKATLTVDTSSSTAYMQLSSLTSEDSAIYYCTRGNFYGYEFAYWGQGTLVTVSA
VL: DIVMTQSHKFISTSVGDRVSITCKASQHVSTAVVWYQQKPGQSPKLLIYSPSYRYTGVPDRFTGSGSGTDFTFTISSVQAEDLAVYYCQQHYITPWTFGGGTKLEIK
notes: also called 40E6-2-2

What was measured:
[1] = biological target: T1, recombinant human TIGIT (Human TIGIT …); test: competition ELISA, coated TIGIT-His, CD155-Fc as competitor
Protocol: In order to evaluate the competition between the anti-human TIGIT mouse monoclonal antibody and CD155 (Human CD155 (Fc Tag): Sino Biological, 10109-H02H) for binding to recombinant human TIGIT (Human TIGIT(His), Sino Biological, 10917-H08H), ELISA detection was performed, and the specific steps were as follows:
Primary antibody incubation: the plate was washed twice with PBS (250 μl/well), and patched dry. 6 μg/ml of CD155 was respectively diluted in a binding solution and added into a 96-well dilution plate at 60 μl/well. Then the screened hybridoma antibody was diluted with the binding solution, (the highest concentration was 30 μg/ml), and diluted to 3 times of concentration, and added into the corresponding dilution plate above at 60 μl/well. After mixing well, the sample was added to the coated 96-well ELISA plate at 100 μl/well. The plate was sealed with a sealing film and placed at 37° C. for 1.5 hours.
Secondary antibody incubation: the blocking solution was discarded, the plate was washed with 250 μl PBST for 3 times, and patched dry.

mouse TIGIT antigen = biological target: T2, mouse TIGIT antigen; test: ELISA, coated mouse TIGIT
Protocol: (§1) The cynomolgus monkey or mouse TIGIT antigen of was coated with the same method as above, the anti-human TIGIT mouse monoclonal antibody was diluted in gradient, and then the anti-mouse Fab secondary antibody was added (Jackson Immuno Research, 515-035-072) for TMB development. ELISA was used to detect the binding of 8 mouse monoclonal antibodies to recombinant cynomolgus monkey TIGIT.

[2] = biological target: T3, full-length human TIGIT expressed on …; test: flow cytometry, CHO-TIGIT cells
[3] = biological target: T1, recombinant human TIGIT (Human TIGIT …); test: ELISA, coated human TIGIT-His
[4] = biological target: T4, recombinant cynomolgus monkey TIGIT (cynomolgus monkey, UniProt A0A7N9I9V4 89-209); test: ELISA, recombinant cynomolgus TIGIT coated, anti-mouse Fab secondary antibody, TMB, OD450/655nm
T4 construct: construct not described; also called cynomolgus TIGIT
Protocol: as §1

[5] = biological target: T4, recombinant cynomolgus monkey TIGIT; test: ELISA, coated cynomolgus TIGIT
Protocol: as §1

T4 sequence (A0A7N9I9V4 entry or part of it): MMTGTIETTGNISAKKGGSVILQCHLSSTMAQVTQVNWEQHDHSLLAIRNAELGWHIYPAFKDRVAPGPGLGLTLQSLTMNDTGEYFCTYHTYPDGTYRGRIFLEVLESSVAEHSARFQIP

Binder | IC50 [1] [nM] | binding result (mouse TIGIT antigen) | EC50 [2] [nM] | EC50 [3] [nM] | EC50 [4] [µg/mL] | EC50 [5] [nM]
B1 | 0.178 | no binding | 0.499 | 0.0647 | 0.16 | 1.07
B2 | 0.141 | no binding | 0.347 | 0.0674 | 0.06 | 0.398
B3 | 0.0607 | no binding | 0.256 | 0.0393 | 0.026 | 0.174
B4 | 0.159 | no binding | 0.226 | 0.075 | 0.106 | 0.704
B5 | 0.183 | no binding | 0.44 | 0.0727 | 0.05 | 0.334

— patent US20240417462A1 (SHANGHAI CELGEN BIO PHARMACEUTICAL, published 2024)
